Columns and labels:
[1] = molecular target: T7 RNA polymerase mutant GP1(lys222) E222K (Bacteriophage T7) (UniProt P00573); details: in vitro transcription, +/-0.008 vs T7 promoter; 40 nM enzyme; may be nonspecific initiation
[2] = molecular target: T7 RNA polymerase (wild-type) (Bacteriophage T7) (UniProt P00573); details: in vitro transcription, +/-0.003 vs T7 promoter; 80 nM enzyme

T3 promoter plasmid pLM10 was tested, and the activity [1] was 0.027 relative and the activity [2] was 0.009 relative.

Reference: patent US5385834
